The text below walks through data of paper PMC3960972 (The Biochemical journal, 2013).

One series deals with SaFosB (Staphylococcus aureus, UniProt Q5HDM4). Kind of series: HPLC-based enzyme inhibition kinetics, purified enzyme. It is filed as biochemical.
The subject of the next series is N[C@@H](CS)C(=O)O. Put plainly: HPLC-based steady-state kinetics. Conditions: […] Mn2+; fosfomycin ([…]). It is filed as biochemical, Staphylococcus aureus.

Chain of SaFosB (Q5HDM4 whole entry): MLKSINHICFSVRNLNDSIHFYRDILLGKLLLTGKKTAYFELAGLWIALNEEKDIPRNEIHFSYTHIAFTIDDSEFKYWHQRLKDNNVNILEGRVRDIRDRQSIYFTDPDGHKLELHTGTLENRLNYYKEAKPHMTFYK

For the compound `N[C@@H](CO)C(=O)N[C@H]1[C@@H](O[C@@H](CC(=O)O)C(=O)O)O[C@H](CO)[C@@H](O)[C@@H]1O` [BOH], the inhibition constant (Ki) on SaFosB was 3.9 mM.
For the compound “SaFosB (Staphylococcus aureus subsp. aureus COL)”, in the series on N[C@@H](CS)C(=O)O, the Michaelis constant (Km) stood at 13 mM, the kcat is 2.3 ± 0.2 s⁻¹ and the kcat/Km was determined as 175 ± 44 M⁻¹ s⁻¹.

A word on the Ki: it is a dissociation constant, usually derived from enzyme kinetics or from competition with a known ligand. A low value points to a stronger hold on the target. By Km is commonly meant the substrate concentration at which the rate is half of its maximum. By kcat is commonly meant the number of substrate molecules converted per active site and unit of time at saturation. For orientation: kcat/Km means the turnover number divided by the Michaelis constant.
